Publication PMC9478924 (The Journal of Biological Chemistry, 2022)
Read-outs that look alike come from different tables or passages of the source.

T1: EVA-P974 (UniProt A0A023FDY8 22-118, biotin on the Avi-tag (Bir-A ligase))
T1 sequence (looked up): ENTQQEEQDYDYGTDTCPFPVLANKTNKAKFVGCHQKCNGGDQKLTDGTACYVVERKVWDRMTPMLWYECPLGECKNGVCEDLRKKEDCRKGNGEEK

T2: EVA-4 (UniProt P0C8E9 24-127, biotin on the Avi-tag (Bir-A ligase))
T2 sequence (looked up): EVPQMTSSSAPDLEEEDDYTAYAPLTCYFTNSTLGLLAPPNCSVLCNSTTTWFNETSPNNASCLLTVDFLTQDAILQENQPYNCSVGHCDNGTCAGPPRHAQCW

T3: EVA-1 (UniProt P0C8E7 21-114, biotin on the Avi-tag (Bir-A ligase))
T3 sequence (looked up): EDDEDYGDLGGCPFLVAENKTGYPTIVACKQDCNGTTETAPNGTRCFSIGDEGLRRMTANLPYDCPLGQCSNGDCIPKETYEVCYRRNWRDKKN


Tests used:
Assay in all cases: SPR
EVA-P974 [1] = biological target: T1, EVA-P974
EVA-P974 [2] = biological target: T1, EVA-P974; remark: listed apart in the source
EVA-4 = biological target: T2, EVA-4
EVA-1 = biological target: T3, EVA-1

| Binder | Kd (EVA-P974 [1]) [nM] | Kd (EVA-P974 [2]) [nM] | Kd (EVA-4) [nM] | Kd (EVA-1) [nM] |
| --- | --- | --- | --- | --- |
| CCL13 (ligand) not shown | 0.5 | – | – | – |
| CCL8 (ligand, human, UniProt P80075 24-99, looked up) QPDSVSIPITCCFNVINRKIPIQRLESYTRITNIQCPKEAVIFKTKRGKEVCADPKERWVRDSMKHLDQIFQNLKP | 0.03 | < 0.1 | 0.4 | – |
| CCL4 (ligand, human, UniProt P13236 24-92, looked up) APMGSDPPTACCFSYTARKLPRNFVVDYYETSSLCSQPAVVFQTKRSKQVCADPSESWVQEYVYDLELN | 1.8 | – | – | 60.7 |
| CCL15 (ligand, human, UniProt Q16663 22-113, looked up) QFTNDAETELMMSKLPLENPVVLNSFHFAADCCTSYISQSIPCSLMKSYFETSSECSKPGVIFLTKKGRQVCAKPSGPGVQDCMKKLKPYSI | – | – | 240 | – |
| CCL7 (ligand) not shown | 4.4 | – | 0.8 | – |
| CCL18 (ligand, human, UniProt P55774 21-89, looked up) AQVGTNKELCCLVYTSWQIPQKFIVDYSETSPQCPKPGVILLTKRGRQICADPNKKWVQKYISDLKLNA | 0.6 | – | 0.4 | 192 |
| CCL14 (ligand, human, UniProt Q16627 20-93, looked up) TKTESSSRGPYHPSECCFTYTTYKIPRQRIMDYYETNSQCSKPGIVFITKRGHSVCTNPSDKWVQDYIKDMKEN | 1.8 | – | 1.1 | 92 |

Further binders by falling Kd (EVA-4), results first:

| Kd (EVA-P974 [1]) [nM] | Kd (EVA-P974 [2]) [nM] | Kd (EVA-4) [nM] | Kd (EVA-1) [nM] | Binder |
| --- | --- | --- | --- | --- |
| 15 | – | 376 | – | CCL1 (ligand, human, UniProt P22362 24-96, looked up) KSMQVPFSRCCFSFAEQEIPLRAILCYRNTSSICSNEGLIFKLKRGKEACALDTVGWVQRHRKMLRHCPSKRK |
| 23 | – | 283 | – | CCL17 (ligand, human, UniProt Q92583 24-94, looked up) ARGTNVGRECCLEYFKGAIPLRKLKTWYQTSEDCSRDAIVFVTVQGRAICSDPNNKRVKNAVKYLQSLERS |
| – | – | 55 | – | CCL24 (ligand, human, UniProt O00175 27-119, looked up) VVIPSPCCMFFVSKRIPENRVVSYQLSSRSTCLKAGVIFTTKKGQQFCGDPKQEWVQRYMKNLDAKQKKASPRARAVAVKGPVQRYPGNQTTC |
| 0.3 | – | 20 | – | CCL11 (ligand) not shown |
| 1.8 | – | 8.5 | – | CCL22 (ligand, human, UniProt O00626 25-93, looked up) GPYGANMEDSVCCRDYVRYRLPLRVVKHFYWTSDSCPRPGVVLLTFRDKEICADPRVPWVKMILNKLSQ |
| – | – | 7.4 | – | CCL23 (ligand, human, UniProt P55773 22-120, looked up) RVTKDAETEFMMSKLPLENPVLLDRFHATSADCCISYTPRSIPCSLLESYFETNSECSKPGVIFLTKKGRRFCANPSDKQVQVCMRMLKLDTRIKTRKN |
| – | – | 6.1 | – | CCL5 (ligand, human, UniProt P13501 24-91, looked up) SPYSSDTTPCCFAYIARPLPRAHIKEYFYTSGKCSNPAVVFVTRKNRQVCANPEKKWVREYINSLEMS |
| 0.1 | < 0.1 | 4.1 | – | CCL16 (ligand, human, UniProt O15467 24-120, looked up) QPKVPEWVNTPSTCCLKYYEKVLPRRLVVGYRKALNCHLPAIIFVTKRNREVCTNPNDDWVQEYIKDPNLPLLPTRNLSTVKIITAKNGQPQLLNSQ |
| 0.6 | – | 0.2 | 0.21 | CCL3 (ligand, human, UniProt P10147 24-92, looked up) SLAADTPTACCFSYTSRQIPQNFIADYFETSSQCSKPGVIFLTKRSRQVCADPSEEWVQKYVSDLELSA |
